Measured values published in publication PMC10175261.

Biological target: PriA (Escherichia coli, UniProt P17888 1-732)
Details: protein: recombinant; tags: N-terminal His; label: 5'-32P on 3L-98 (strand 2); fork 1:2 1:3; ssDNA lagging arm (strand 2)

B1: Fork 1 (structured_DNA)
DNA 1: GCAAGCCTTCTACAGGTCGACCGTCCATGGCGACTCGAGACCGCAATACGGATAAGGGCTGAGCACGCCGACGAACATTCACCACGCCAGACCACGTA
DNA 2: GACTATCTACGTCCGAGGCTCGCGCCGCAGACTCATTTAGCCCTTATCCGTATTGCGGTCTCGAGTCGCCATGGACGGTCGACCTGTAGAAGGCTTGC
DNA 3: TACGTGGTCTGGCGTGGTGAATGTTCGTCGGCGTGCTC
  binding signal: 91.9 ± 4.1 % fork shifted
